# Laboratory results as given in US7364887B2, “Use of PAK inhibitor for the treatment of a joint disease” (Sanofi-Aventis Deutschland GmbH, priority 2003, dated 2008).
# B1: PAK1-ID: Autoinhibitory domain of PAK1, residues 83 to 149 (SEQ ID NO: 6), HA-tagged, overexpressed from pCEP4 or pcDNA3.1 vector in cells (protein, listed as Homo sapiens)
# chain: HTIHVGFDAVTGEFTGMPEQWARLLQTSNITKSEQKKNPQAVLDVLEFYNSKKTSNSQKYMSFTDKS
# modifications: HA tag
# Key:
# Assay type in all cases: cell-based, human
# [1] = test system: IL-1β induced expression of PGE2 in SW1353 cells; test: PGE2 in supernatants by ELISA after overexpression of PAK1-ID in SW1353 cells; conditions: SW1353 cells transfected with pCEP4_PAK1-ID vs void vector; IL-1β and TNFα both 10 ng/ml for 24 h; ELISA of supernatant
# Protocol: The PAK1 inhibitory domain was subcloned into the pCEP4 vector and transfected into SW1353 cells. Cells were stimulated with a combination of IL-1β and TNFα both at a concentration of 10 ng/ml for 24 h. Supernatants were collected and the amount of MMP13 protein was determined by ELISA. Values in arbitrary units represent the mean of two experiments. The punctured column represents the experiments with no vector plus IL1β and TNFα. The chequered column represents the experiments with the vector pCEP4 (void vector) plus IL1β and TNFα. The black column represents the experiments with the vector pCEP4_PAK1-ID plus IL1β and TNFα. […]
# (§1) Cultures of human SW1353 chondrosarcoma were grown in Dulbecco's modified Eagles's medium (DMEM) containing 10% fetal calf serum (FCS) and penicillin/streptomycin (37° C., 5% CO2). […] The transfection efficiency was examined with a FACScan (Becton Dickinson Immunocytometry Systems, Inc., Mountain View, Calif., U.S.A.) and on an inverted fluorescence microscope. […]
# (§2) Human embryonic kidney (HEK) 293 were maintained in Dulbecco's modified Eagle's medium supplemented with 10% fetal calf serum. […] Culture supernatant were removed and expression of IL-8 (R&D Systems, Inc., Minneapolis, Minn., U.S.A.), PGE2 (SpiBiom Inc.), and MMP-13 (Amersham Pharmacia Biotech, Inc.) was monitored by ELISA according to the procedure supplied by the manufacturer. […]
# [2] = test system: IL-1β induced expression of IL-8 in HEK293 cells; test: IL-8 protein in supernatants by ELISA after transient transfection of PAK1-ID in HEK293 cells; conditions: HEK293 cells transiently transfected with pCDNA3.1_PAK1-ID vs void vector; IL-1β 10 ng/ml, time course; ELISA of supernatant
# Protocol: The PAK1 inhibitory domain subcloned into the pCDNA3.1 vector was transiently transfected into HEK293 cells. Cells were stimulated with IL-1β at a concentration of 10 ng/ml for the indicated time periods. Supernatants were collected and the amount of IL-8 protein was determined by ELISA. Values in arbitrary units represent the mean of two experiments. The circles represents the experiments with the vector pCDNA3.1_PAK1-ID plus IL-1β and the squares represent the experiments with the vector pCDNA3.1 (void vector) plus IL-1β.
# (§3) (Kozak sequence is underlined, hemagglutinin (HA) tag is in bold) and 5′-[…]-3′(SEQ ID NO: 12) (MWG, Biotech AG, Germany). […]
# Human embryonic kidney (HEK) 293 were maintained in Dulbecco's modified Eagle's medium supplemented with 10% fetal calf serum. […] Culture supernatant were removed and expression of IL-8 (R&D Systems, Inc., Minneapolis, Minn., U.S.A.), PGE2 (SpiBiom Inc.), and MMP-13 (Amersham Pharmacia Biotech, Inc.) was monitored by ELISA according to the procedure supplied by the manufacturer.
# For the analysis of MMP13, IL-8 and PGE2 protein levels, supernatants of cell cultures were determined by ELISA for MMP13 (Amersham Pharmacia Biotech, Inc.), IL-8 (R&D Systems, Inc. Minneapolis, Minn., U.S.A.) and PGE2 (SpiBio) as described by the supplier. […]
# [3] = test system: IL-1β induced expression of MMP13 in SW1353 cells; test: MMP13 protein in supernatants by ELISA after overexpression of PAK1-ID in SW1353 cells; conditions: SW1353 cells transfected with pCEP4_PAK1-ID vs void vector, ELISA of supernatant
# Protocol: The PAK1 inhibitory domain was subcloned into the pCEP4 vector and transfected into SW1353 cells. Where indicated, IL-1β was used as a stimulus at a concentration of 10 ng/ml for 24 h. Supernatants were collected and the amount of MMP13 protein was determined by ELISA. Values are shown in arbitrary units and represent at least 3 independent results ±SD. The chequered column represents the experiments with the vector pCEP4 (void vector) and the black column represents the experiments with the vector pCEP4_PAK1-ID.
# as §3, §1, §2
molecule,measurement,setting,value
B1,inhibition of IL-1β induced expression of PGE2,[1],more than 50%
same,effect on IL-1β induced expression of IL-8,[2],represses the IL-1β induced expression of IL-8
same,inhibition of the IL-1β-induced expression of MMP13,[3]; IL-1β 10 ng/ml for 24 h,~55%
same,inhibition of basal MMP13 secretion in non-stimulated cells,[3]; non-stimulated (no IL-1β),> 80%
